The text below walks through data of article PMC3257569 (The Journal of Cell Biology, 2011).

Series [1] deals with the molecule itself. Put plainly: velocity sedimentation in a sucrose gradient.
Series [2] deals with the molecule itself. The experiment in a line: negative staining and EM.

B1: recombinant Lsp1 (natural protein, S. cerevisiae, UniProt Q12230 1-341, looked up)
chain: MHRTYSLRNQRAPTAAELQAPPPPPSSTKSKFFGKASIASSFRKNAAGNFGPELARKLSQLVKTEKGVLRAMEVVASERREAAKQLSLWGADNDDDVSDVTDKLGVLIYELGELQDQFIDKYDQYRVTLKSIRNIEASVQPSRDRKEKITDEIAHLKYKDPQSTKIPVLEQELVRAEAESLVAEAQLSNITREKLKAAYSYMFDSLRELSEKFALIAGYGKALLELLDDSPVTPGEARPAYDGYEASRQIIMDAESALESWTLDMAAVKPTLSFHQTVDDVYEDEDGEEEEEPEIQNGDIPGQVVEEEEVEWTTEVPVDDEAHEADHHVSQNGHTSGSENI
Regarding B1, in series [1], the binding result is recorded as “binds”.

B2: pil1ΔN (domain or fragment, S. cerevisiae, UniProt P53252 36-339, looked up)
chain: GGLAYSFRRSAAGAFGPELSRKLSQLVKIEKNVLRSMELTANERRDAAKQLSIWGLENDDDVSDITDKLGVLIYEVSELDDQFIDRYDQYRLTLKSIRDIEGSVQPSRDRKDKITDKIAYLKYKDPQSPKIEVLEQELVRAEAESLVAEAQLSNITRSKLRAAFNYQFDSIIEHSEKIALIAGYGKALLELLDDSPVTPGETRPAYDGYEASKQIIIDAESALNEWTLDSAQVKPTLSFKQDYEDFEPEEGEEEEEEDGQGRWSEDEQEDGQIEEPEQEEEGAVEEHEQVGHQQSESLPQQTTA
For B2, the binding result in series [2] is “binds”.

B3: recombinant Pil1 (natural protein, S. cerevisiae, UniProt P53252 1-339, looked up)
chain: MHRTYSLRNSRAPTASQLQNPPPPPSTTKGRFFGKGGLAYSFRRSAAGAFGPELSRKLSQLVKIEKNVLRSMELTANERRDAAKQLSIWGLENDDDVSDITDKLGVLIYEVSELDDQFIDRYDQYRLTLKSIRDIEGSVQPSRDRKDKITDKIAYLKYKDPQSPKIEVLEQELVRAEAESLVAEAQLSNITRSKLRAAFNYQFDSIIEHSEKIALIAGYGKALLELLDDSPVTPGETRPAYDGYEASKQIIIDAESALNEWTLDSAQVKPTLSFKQDYEDFEPEEGEEEEEEDGQGRWSEDEQEDGQIEEPEQEEEGAVEEHEQVGHQQSESLPQQTTA
Turning to B3, in series [1], the binding result is reported as “binds”.

B4: recombinant pil1(4D) (natural protein, S. cerevisiae, UniProt P53252 1-339, looked up)
chain: MHRTYSLRNSRAPTASQLQNPPPPPSTTKGRFFGKGGLAYSFRRDAAGAFGPELSRKLDQLVKIEKNVLRSMELTANERRDAAKQLSIWGLENDDDVSDITDKLGVLIYEVSELDDQFIDRYDQYRLTLKSIRDIEGSVQPSRDRKDKITDKIAYLKYKDPQSPKIEVLEQELVRAEAESLVAEAQLSNITRSKLRAAFNYQFDSIIEHSEKIALIAGYGKALLELLDDDPVDPGETRPAYDGYEASKQIIIDAESALNEWTLDSAQVKPTLSFKQDYEDFEPEEGEEEEEEDGQGRWSEDEQEDGQIEEPEQEEEGAVEEHEQVGHQQSESLPQQTTA
On to B4, for which the binding result in series [2] is recorded as “binds”.

B5: lsp1ΔN (domain or fragment, S. cerevisiae, UniProt Q12230 36-341, looked up)
chain: ASIASSFRKNAAGNFGPELARKLSQLVKTEKGVLRAMEVVASERREAAKQLSLWGADNDDDVSDVTDKLGVLIYELGELQDQFIDKYDQYRVTLKSIRNIEASVQPSRDRKEKITDEIAHLKYKDPQSTKIPVLEQELVRAEAESLVAEAQLSNITREKLKAAYSYMFDSLRELSEKFALIAGYGKALLELLDDSPVTPGEARPAYDGYEASRQIIMDAESALESWTLDMAAVKPTLSFHQTVDDVYEDEDGEEEEEPEIQNGDIPGQVVEEEEVEWTTEVPVDDEAHEADHHVSQNGHTSGSENI
Consider B5, for which, in series [2], the binding result was “binds”.
